Patent publication US20210340231A1 (FAPON BIOTECH, published 2021)
Like-named read-outs stand apart in the source and are kept apart here.

How the values were obtained:
[1] = target: T1, CTNI quality control recombinant protein (PK2-CTNI-1, 170120, produced by the applicant) (human, UniProt P19429 2-210, limits assumed); experiment: AMC sensor kinetics, antibody captured, cTnI analyte
T1 construct: also called cardiac troponin I

[2] = target: T1, CTNI quality control recombinant …; experiment: indirect ELISA, cTnI coated 1 ug/ml, antibody 1.6 ug/ml
Protocol: (§1) The cTnI quality control after diluted to 1 μg/ml with the coating solution was used for microplate coating at 100 uL per well and left at 4° C. overnight. The next day, the microplate was washed twice with the wash solution and tapped for drying. The blocking solution (20% BSA+80% PBS) was added at 120 μL per well and left for 1 h at 37° C., and the microplate was tapped for drying. The diluted cTn monoclonal antibody was added at 100 μL per well and left for 30 min at 37° C.; then the microplate was washed 5 times with the wash solution and tapped for drying. The goat anti-mouse IgG-HRP was added at 100 μL per well and left for 30 min at 37° C.; then the microplate was washed 5 times with the wash solution and tapped for drying. Colour-developing solution A was added at 50 μL per well, followed by colour-developing solution B at 50 μL per well; the mixed solution was left for 10 min; and stopping solution was added at 50 μL per well. The OD value was read out at 450 nm (reference at 630 nm) on the microplate reader.

[3] = target: T1, CTNI quality control recombinant …; experiment: indirect ELISA, cTnI coated 1 ug/ml, antibody 8 ug/ml
Protocol: as §1

[4] = target: T1, CTNI quality control recombinant …; experiment: indirect ELISA, cTnI coated 1 ug/ml, antibody 0 ug/ml (blank)
Protocol: as §1

[5] = target: T1, CTNI quality control recombinant …; experiment: indirect ELISA, cTnI coated 1 ug/ml, antibody 0.32 ug/ml
Protocol: as §1

[6] = target: T1, CTNI quality control recombinant …; experiment: indirect ELISA, cTnI coated 1 ug/ml, antibody 200 ug/ml
Protocol: as §1

[7] = target: T1, CTNI quality control recombinant …; experiment: indirect ELISA, cTnI coated 1 ug/ml, antibody 40 ug/ml
Protocol: as §1

[8] = target: T1, CTNI quality control recombinant …; experiment: indirect ELISA, cTnI coated 1 ug/ml, antibody 1000 ug/ml
Protocol: as §1

[9] = target: T1, CTNI quality control recombinant …; experiment: AMC sensor kinetics, antibody captured, cTnI analyte; remark: listed apart in the source
Protocol: Using the AMC sensor, the purified antibody was diluted with PBST to 10 μg/ml, and the CTNI quality control recombinant protein (PK2-CTNI-1, 170120, produced by the applicant) was serially diluted with PBST to 400 nmol/ml, 200 nmol/ml, 100 nmol/ml, 50 nmol/ml, 25 nmol/ml, 12.5 nmol/ml, 6.25 nmol/ml, and 0 nmol/ml.

T1 sequence (P19429 2-210 limits assumed): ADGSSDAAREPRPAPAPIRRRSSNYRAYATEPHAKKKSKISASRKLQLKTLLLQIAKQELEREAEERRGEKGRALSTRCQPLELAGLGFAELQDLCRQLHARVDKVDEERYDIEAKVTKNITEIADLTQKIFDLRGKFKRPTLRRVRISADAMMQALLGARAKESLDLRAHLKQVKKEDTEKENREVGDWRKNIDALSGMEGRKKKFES

Binder	Kd [1]	koff [1]	kon [1]	OD 450 nm (reference 630 nm) [2]	OD 450 nm (reference 630 nm) [3]	OD 450 nm (reference 630 nm) [4]	OD 450 nm (reference 630 nm) [5]	OD 450 nm (reference 630 nm) [6]	OD 450 nm (reference 630 nm) [7]	OD 450 nm (reference 630 nm) [8]	Kd [9]	koff [9]	kon [9]
WT 1-50 (antibody, V domains shown, Built as for Mutation 1) VH: EVQLQQSGAELVKPGASVKLSCTASGFNLKEYYMHWMKQRTEQGLDWIGRIEPEDGETRYAPEFQGKATITADTSSNTAYLQLSTLTSEDTAVYYCARYYTSYLPFVYWGQGTLVTASA VL: DVVMTQTPLSLSVSLGDQASISCRSSQSLIYSNKHTYLHWYLQKPGQSPKLLIFQLSQRFSGVPDRFSGSGSGTDFTLKINRVEAEDLGVYFCSNSTHLPYTFGSGTKLEIKR	702 pM	0.000489 s⁻¹	696000 M⁻¹ s⁻¹	–	–	–	–	–	–	–	–	–	–
Mutation 2 (antibody, V domains shown, built as for Mutation 1) VH: EVQLQQSGAELVKPGASVKLSCTASGFNLKEYFMHWMKQRTEQGLDWIGRIDPEDAETRYAPEFQGKATITADTSSNTAYLQLSTLTSEDTAVYYCARYYTSYIPFVYWGQGTLVTASA VL: DVVMTQTPLSLSVSLGDQASISCRSSQSIIYSNRHTYLHWYLQKPGQSPKLLIFQISNRFSGVPDRFSGSGSGTDFTLKINRVEAEDLGVYFCSQSTHLPFTFGSGTKLEIKR	–	–	–	0.724 OD	1.8 OD	0.04 OD	0.233 OD	2.42 OD	2.3 OD	2.38 OD	–	–	–
Mutation 3 (antibody, V domains shown, built as for Mutation 1) VH: EVQLQQSGAELVKPGASVKLSCTASGFNLKEYFMHWMKQRTEQGLDWIGRIDPEDAETRYAPEFQGKATITADTSSNTAYLQLSTLTSEDTAVYYCARYYTSYIPFVYWGQGTLVTASA VL: DVVMTQTPLSLSVSLGDQASISCRSSQSIIYSNRHTYLHWYLQKPGQSPKLLIFQISQRFSGVPDRFSGSGSGTDFTLKINRVEAEDLGVYFCSQSTHLPFTFGSGTKLEIKR	–	–	–	0.831 OD	1.86 OD	0.028 OD	0.301 OD	2.37 OD	2.25 OD	2.35 OD	–	–	–
Mutation 1 (antibody, V domains shown, No residue numbers are printed, so each chain is built as FR1-CDR1-FR2-CDR2-FR3-CDR3-FR4-constant) VH: EVQLQQSGAELVKPGASVKLSCTASGFNLKDYFMHWMKQRTEQGLDWIGRIDPEDAETRYAPEFQGKATITADTSSNTAYLQLSTLTSEDTAVYYCARYYSSYIPFVYWGQGTLVTASA VL: DVVMTQTPLSLSVSLGDQASISCRSSQSIIYSNRHTYLHWYLQKPGQSPKLLIFQISNRFSGVPDRFSGSGSGTDFTLKINRVEAEDLGVYFCSQSTHLPFTFGSGTKLEIKR	–	–	–	0.973 OD	2.07 OD	0.032 OD	0.341 OD	2.4 OD	2.35 OD	2.4 OD	751 pM	0.000155 s⁻¹	206000 M⁻¹ s⁻¹

Further lines, results first:

Kd [1]	koff [1]	kon [1]	OD 450 nm (reference 630 nm) [2]	OD 450 nm (reference 630 nm) [3]	OD 450 nm (reference 630 nm) [4]	OD 450 nm (reference 630 nm) [5]	OD 450 nm (reference 630 nm) [6]	OD 450 nm (reference 630 nm) [7]	OD 450 nm (reference 630 nm) [8]	Kd [9]	koff [9]	kon [9]	Binder
549 pM	0.000348 s⁻¹	633000 M⁻¹ s⁻¹	–	–	–	–	–	–	–	–	–	–	WT 1-3 (antibody, V domains shown, built as for Mutation 1) VH: EVQLQQSGAELVKPGASVKLSCTASGFNIKEYYMHWMKQRTEQGLDWIGRIEPEDGETKYAPEFQGKATITADTSSNTAYLQLSTLTSEDTAVYYCARYYTSYLPFVYWGQGTLVTASA VL: DVVMTQTPLSLSVSLGDQASISCRSSQSLLYSNKHTYLHWYLQKPGQSPKLLIFQLSQRFSGVPDRFSGSGSGTDFTLKINRVEAEDLGVYFCSNSTHIPYTFGSGTKLEIKR
749 pM	0.000398 s⁻¹	532000 M⁻¹ s⁻¹	–	–	–	–	–	–	–	–	–	–	WT 1-14 (antibody, V domains shown, built as for Mutation 1) VH: EVQLQQSGAELVKPGASVKLSCTASGFNIKEYFMHWMKQRTEQGLDWIGRIEPEDAETKYAPEFQGKATITADTSSNTAYLQLSTLTSEDTAVYYCARYYTSYIPFVYWGQGTLVTASA VL: DVVMTQTPLSLSVSLGDQASISCRSSQSLLYSNKHTYLHWYLQKPGQSPKLLIFQISQRFSGVPDRFSGSGSGTDFTLKINRVEAEDLGVYFCSNSTHIPFTFGSGTKLEIKR
–	–	–	0.721 OD	1.69 OD	0.042 OD	0.189 OD	2.2 OD	1.94 OD	2.2 OD	–	–	–	Mutation 5 (antibody, V domains shown, built as for Mutation 1) VH: EVQLQQSGAELVKPGASVKLSCTASGFNLKDYFMHWMKQRTEQGLDWIGRIEPEDAETRYAPEFQGKATITADTSSNTAYLQLSTLTSEDTAVYYCARYYSSYIPFVYWGQGTLVTASA VL: DVVMTQTPLSLSVSLGDQASISCRSSQSIIYSNKHTYLHWYLQKPGQSPKLLIFQISQRFSGVPDRFSGSGSGTDFTLKINRVEAEDLGVYFCSNSTHLPFTFGSGTKLEIKR
–	–	–	0.689 OD	1.75 OD	0.03 OD	0.314 OD	2.15 OD	1.98 OD	2.22 OD	–	–	–	Mutation 4 (antibody, V domains shown, built as for Mutation 1) VH: EVQLQQSGAELVKPGASVKLSCTASGFNLKDYFMHWMKQRTEQGLDWIGRIEPEDAETRYAPEFQGKATITADTSSNTAYLQLSTLTSEDTAVYYCARYYSSYIPFVYWGQGTLVTASA VL: DVVMTQTPLSLSVSLGDQASISCRSSQSIIYSNKHTYLHWYLQKPGQSPKLLIFQISNRFSGVPDRFSGSGSGTDFTLKINRVEAEDLGVYFCSNSTHLPFTFGSGTKLEIKR
1230 pM	0.00011 s⁻¹	89600 M⁻¹ s⁻¹	–	–	–	–	–	–	–	–	–	–	WT 1-29 (antibody, V domains shown, built as for Mutation 1) VH: EVQLQQSGAELVKPGASVKLSCTASGFNLKEYYMHWMKQRTEQGLDWIGRIEPEDGETKYAPEFQGKATITADTSSNTAYLQLSTLTSEDTAVYYCARYYTSYVPFVYWGQGTLVTASA VL: DVVMTQTPLSLSVSLGDQASISCRSSQSLLYSNKHTYLHWYLQKPGQSPKLLIFQVSQRFSGVPDRFSGSGSGTDFTLKINRVEAEDLGVYFCSNSTHLPYTFGSGTKLEIKR
